Our source for the Kd, koff and kon values is patent US20120040375A1.

One may read the Kd as the concentration at which binding is half-saturated. A low value points to higher affinity. Usually koff stands for the rate constant with which the complex falls apart. By kon is commonly meant the second-order rate constant of association.

Experiment [1] concerns the target Biotin-Tn(DT*R)-100. In words: SPR, Biacore T100, Biotin-Tn(DT*R)-100 on sensor chip SA. A general note: Surface plasmon resonance follows binding to a sensor surface in real time, without labels.
The target in experiment [2] is biotin-labeled T-47D culture supernatant (MUC1) (human) (UniProt P15941). In words: SPR, Biacore, biotin-labeled T-47D culture supernatant on sensor chip SA.
Sequence of biotin-labeled T-47D culture supernatant (MUC1) (human) (P15941 24-1097 limits assumed): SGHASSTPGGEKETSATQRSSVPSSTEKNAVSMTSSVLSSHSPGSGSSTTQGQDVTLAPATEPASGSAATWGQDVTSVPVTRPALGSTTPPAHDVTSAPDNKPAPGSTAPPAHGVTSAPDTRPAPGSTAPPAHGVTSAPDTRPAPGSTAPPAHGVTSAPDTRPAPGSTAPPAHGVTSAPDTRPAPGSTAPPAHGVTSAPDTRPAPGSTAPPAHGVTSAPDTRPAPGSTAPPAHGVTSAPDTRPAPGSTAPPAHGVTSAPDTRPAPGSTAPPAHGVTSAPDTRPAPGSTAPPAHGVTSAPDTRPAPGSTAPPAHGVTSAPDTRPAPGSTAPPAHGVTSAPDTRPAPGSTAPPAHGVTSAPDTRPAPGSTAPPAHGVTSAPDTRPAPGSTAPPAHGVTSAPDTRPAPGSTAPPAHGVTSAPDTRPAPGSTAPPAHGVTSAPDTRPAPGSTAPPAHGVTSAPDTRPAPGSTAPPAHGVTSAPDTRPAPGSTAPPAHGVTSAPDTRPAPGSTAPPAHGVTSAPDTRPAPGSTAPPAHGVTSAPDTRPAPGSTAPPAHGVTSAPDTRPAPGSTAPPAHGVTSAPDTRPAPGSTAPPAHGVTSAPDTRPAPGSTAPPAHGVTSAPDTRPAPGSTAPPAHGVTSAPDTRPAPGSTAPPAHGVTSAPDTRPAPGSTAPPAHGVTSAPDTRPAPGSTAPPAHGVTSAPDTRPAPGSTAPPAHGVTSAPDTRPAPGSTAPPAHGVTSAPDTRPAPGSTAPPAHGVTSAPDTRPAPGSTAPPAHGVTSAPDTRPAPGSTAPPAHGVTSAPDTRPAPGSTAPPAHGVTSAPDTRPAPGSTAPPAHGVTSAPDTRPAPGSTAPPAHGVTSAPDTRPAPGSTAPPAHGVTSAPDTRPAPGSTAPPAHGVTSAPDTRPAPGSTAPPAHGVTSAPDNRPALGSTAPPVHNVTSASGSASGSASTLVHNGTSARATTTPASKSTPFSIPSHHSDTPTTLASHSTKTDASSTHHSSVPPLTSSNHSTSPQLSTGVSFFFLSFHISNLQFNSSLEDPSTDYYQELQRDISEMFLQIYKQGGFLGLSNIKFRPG

T100 sequence (peptide, as listed by the source limits assumed): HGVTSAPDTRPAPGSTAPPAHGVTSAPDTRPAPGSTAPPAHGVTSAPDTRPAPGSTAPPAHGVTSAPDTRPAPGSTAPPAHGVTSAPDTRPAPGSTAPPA

Turning to C595 (antibody), in experiment [1], the Kd was 720 nM, the koff was 0.012 s⁻¹ and the kon is 16000 M⁻¹ s⁻¹. Besides, in experiment [2], the Kd was determined as 580 nM, the koff was 0.026 s⁻¹ and the kon came to 44000 M⁻¹ s⁻¹.

In experiment [1], VU-2G7 (antibody) registered a Kd of 180 nM, a koff of 0.064 s⁻¹ and a kon of 360000 M⁻¹ s⁻¹. Further, in experiment [2], the Kd was 180 nM, the koff was 0.099 s⁻¹ and the kon was 550000 M⁻¹ s⁻¹.

Regarding VU-3C6 (antibody), in experiment [1], the Kd turned out to be 840 nM, the koff was determined as 0.051 s⁻¹ and the kon is 61000 M⁻¹ s⁻¹. In addition, in experiment [2], the Kd is 150 nM, the koff came to 0.015 s⁻¹ and the kon stood at 110000 M⁻¹ s⁻¹.
